Positions count from the first letter of the chain named. Names may count otherwise.
B1: CyPPO19 V165S + F360T: variant of CyPPO19 PPO protein (SEQ ID NO: 1) (protein)
chain: MSEVDVAIVGGGLSGLSLAWRLQQSAPQYSVVLLEASDRLGGNITTQTAEGFVWELGPNSFAPTPALLQLIAEVGLQSELIRGDRHLPRYIYWRGQLYPLQPTRPLALATSNLLSPWGKVRAALGALGFVPPYLGSGDESVNSFFRRHLGQEVAERLVAPFVSGSYAGDPQQLSAAAAFRRIAQLEKLGGGLIAGALHLRRQQAPKPKPPTSVQMRPGELGSFKEGLAALPRAIAQQLKAPIHLQTPVQEITPDPKGGYLLRSGEQTWRARSVVLATPAYQTAELVAPFQPAIARVLATIPYPTVACVVLAYPAGLGRSVRPGFGVLIPRSQGIRTLGTIWSSCLFPQRTPAGWQVFTSTIGGATDPDLASLSEEAIVQQVQQDLNRLLDLPAAKARLLGMKVWRRAIPQYMVGYPEQWQQVTHALSQTPGLFLCSNYAEGVALGDRVEHGNRTAAAVAAYLSGGQP
modifications: Synthetic_PPO of Thermosynechococcus elongatus PKUAC-SCTE542 (comprising GenBank No. CP032152.1)
B2: CyPPO19 A167C + F360I: variant of CyPPO19 PPO protein (SEQ ID NO: 1) (protein)
chain: B1 chain with S165V, A167C, T360I
modifications: Synthetic_PPO of Thermosynechococcus elongatus PKUAC-SCTE542 (comprising GenBank No. CP032152.1)
B3: CyPPO19 V305M + F360I: variant of CyPPO19 PPO protein (SEQ ID NO: 1) (protein)
chain: B1 chain with S165V, V305M, T360I
modifications: Synthetic_PPO of Thermosynechococcus elongatus PKUAC-SCTE542 (comprising GenBank No. CP032152.1)
B4: CyPPO19 A167L + F360T: variant of CyPPO19 PPO protein (SEQ ID NO: 1) (protein)
chain: B1 chain with S165V, A167L
modifications: Synthetic_PPO of Thermosynechococcus elongatus PKUAC-SCTE542 (comprising GenBank No. CP032152.1)
B5: CyPPO19 A167C + F360M: variant of CyPPO19 PPO protein (SEQ ID NO: 1) (protein)
chain: B1 chain with S165V, A167C, T360M
modifications: Synthetic_PPO of Thermosynechococcus elongatus PKUAC-SCTE542 (comprising GenBank No. CP032152.1)
B6: CyPPO19 A167I + F360L: variant of CyPPO19 PPO protein (SEQ ID NO: 1) (protein)
chain: B1 chain with S165V, A167I, T360L
modifications: Synthetic_PPO of Thermosynechococcus elongatus PKUAC-SCTE542 (comprising GenBank No. CP032152.1)
B7: CyPPO19 A167C + F360V: variant of CyPPO19 PPO protein (SEQ ID NO: 1) (protein)
chain: B1 chain with S165V, A167C, T360V
modifications: Synthetic_PPO of Thermosynechococcus elongatus PKUAC-SCTE542 (comprising GenBank No. CP032152.1)
B8: CyPPO19 A167L + F360M: variant of CyPPO19 PPO protein (SEQ ID NO: 1) (protein)
chain: B1 chain with S165V, A167L, T360M
modifications: Synthetic_PPO of Thermosynechococcus elongatus PKUAC-SCTE542 (comprising GenBank No. CP032152.1)
B9: CyPPO19 A167C + F360L: variant of CyPPO19 PPO protein (SEQ ID NO: 1) (protein)
chain: B1 chain with S165V, A167C, T360L
modifications: Synthetic_PPO of Thermosynechococcus elongatus PKUAC-SCTE542 (comprising GenBank No. CP032152.1)

test system: PPO-deficient BT3 E. coli (ΔPPO); assay: PPO-inhibiting herbicide tolerance test of PPO variants in E. coli (growth on herbicide-containing LB agar); assay type: cell-based; conditions: CyPPO19 variants in BT3 (ΔPPO) E. coli; LB agar with 0 to 2,000 μM herbicide, 37° C., dark, 16-20 hours
Method in brief: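 Tolerance was scored against wild-type enzyme: '−' for equal growth, one '+' per 10-fold gain, up to '+++++'. ΔPPO BT3 cells carrying variant plasmids, spotted as a 10-fold dilution series from OD600=0.5, grew 16-20 h at 37° C. in the dark on ampicillin LB agar containing 0 to 2,000 μM herbicide.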

Molecule	tolerance level relative to wild type, Carfentrazone	tolerance level relative to wild type, Flumioxazin	tolerance level relative to wild type, Fomesafen	tolerance level relative to wild type, Oxyfluorfen	tolerance level relative to wild type, Saflufenacil	tolerance level relative to wild type, Sulfentrazone	tolerance level relative to wild type, Tiafenacil
B1	+ (‘+’ per each 10-fold resistance)	+++ (‘+’ per each 10-fold resistance)	+ (‘+’ per each 10-fold resistance)	+ (‘+’ per each 10-fold resistance)	+++ (‘+’ per each 10-fold resistance)	++ (‘+’ per each 10-fold resistance)	++++ (‘+’ per each 10-fold resistance)
B2	+ (‘+’ per each 10-fold resistance)	++++ (‘+’ per each 10-fold resistance)	+ (‘+’ per each 10-fold resistance)	+ (‘+’ per each 10-fold resistance)	+++ (‘+’ per each 10-fold resistance)	++ (‘+’ per each 10-fold resistance)	++++ (‘+’ per each 10-fold resistance)
B3	+ (‘+’ per each 10-fold resistance)	++++ (‘+’ per each 10-fold resistance)	+ (‘+’ per each 10-fold resistance)	+ (‘+’ per each 10-fold resistance)	++++ (‘+’ per each 10-fold resistance)	++ (‘+’ per each 10-fold resistance)	++++ (‘+’ per each 10-fold resistance)
B4	+ (‘+’ per each 10-fold resistance)	+++ (‘+’ per each 10-fold resistance)	+ (‘+’ per each 10-fold resistance)	+ (‘+’ per each 10-fold resistance)	+++ (‘+’ per each 10-fold resistance)	++ (‘+’ per each 10-fold resistance)	+++ (‘+’ per each 10-fold resistance)
B5	+ (‘+’ per each 10-fold resistance)	++++ (‘+’ per each 10-fold resistance)	+ (‘+’ per each 10-fold resistance)	++ (‘+’ per each 10-fold resistance)	++++ (‘+’ per each 10-fold resistance)	+ (‘+’ per each 10-fold resistance)	++++ (‘+’ per each 10-fold resistance)
B6	+ (‘+’ per each 10-fold resistance)	+++ (‘+’ per each 10-fold resistance)	+ (‘+’ per each 10-fold resistance)	+ (‘+’ per each 10-fold resistance)	+++ (‘+’ per each 10-fold resistance)	+ (‘+’ per each 10-fold resistance)	+++ (‘+’ per each 10-fold resistance)
B7	+ (‘+’ per each 10-fold resistance)	+++ (‘+’ per each 10-fold resistance)	+ (‘+’ per each 10-fold resistance)	+ (‘+’ per each 10-fold resistance)	+++ (‘+’ per each 10-fold resistance)	+ (‘+’ per each 10-fold resistance)	++++ (‘+’ per each 10-fold resistance)
B8	+ (‘+’ per each 10-fold resistance)	++++ (‘+’ per each 10-fold resistance)	++ (‘+’ per each 10-fold resistance)	+ (‘+’ per each 10-fold resistance)	++++ (‘+’ per each 10-fold resistance)	++ (‘+’ per each 10-fold resistance)	++++ (‘+’ per each 10-fold resistance)
B9	+ (‘+’ per each 10-fold resistance)	+++ (‘+’ per each 10-fold resistance)	+ (‘+’ per each 10-fold resistance)	+ (‘+’ per each 10-fold resistance)	+++ (‘+’ per each 10-fold resistance)	+ (‘+’ per each 10-fold resistance)	+++ (‘+’ per each 10-fold resistance)
